Literature values in patent publication US20040253224A1, “Mammalian mucinase, its recombinant production, and its use in therapy or prophylaxis against diseases in which mucus is involved or infectious diseases” (priority 2001, published 2004).

Legend:
[1] = aerosolized, Phase 3, cystic fibrosis patients
[2] = in vitro

B1: recombinant human DNase I: recombinant human deoxyribonuclease I, an enzyme that selectively cleaves DNA (Pulmozyme, Genentech) (protein, UniProt P24855 23-282, looked up)
Deoxyribonuclease-1: LKIAAFNIQTFGETKMSNATLVSYIVQILSRYDIALVQEVRDSHLTAVGKLLDNLNQDAPDTYHYVVSEPLGRNSYKERYLFVYRPDQVSAVDSYYYDDGCEPCGNDTFNREPAIVRFFSRFTEVREFAIVPLHAAPGDAVAEIDALYDVYLDVQEKWGLEDVMLMGDFNAGCSYVRPSQWSSIRLWTSPTFQWLIPDSADTTATPTHCAYDRIVVAGMLLRGAVVPDSALPFNFQAAYGLSDQLAQAISDHYPVEVMLK
[1]
  improvement in FEV1: 5.6-5.8%
  reduction in respiratory exacerbations: 28-37%
[2]
  mucociliary transportability of CF sputum: increased
  viscosity and adhesiveness of purulent CF sputum: decrease
